Reference: patent US4532212A, “Process for the dissolution of peptides in non-aqueous and mixed non-aqueous/aqueous systems” (Shell Oil Company, priority 1983, dated 1985)
Entries after “also recorded” stand apart in the source; their conditions may differ.

Tests used:
Type in all cases: physicochemical
[1] = Protein separation with crown ether/methanol: iso-electric focusing of fractions; conditions: 18-crown-6 in methanol
Experimental: Thus mixtures of cytochrome c and α-chymotrypsin (10 mg each, 8.1×10^-4 and 4×10^-4 m.mole, respectively) were treated with 18-crown-6 (28 mg, 0.11 m.mole) in methanol (2 ml). The red solution was filtered from undissolved protein (α-chymotrypsin) and dialysed against water, then buffer (Tris, pH 7.5, 0.10 M). Both filtrate and filtered protein fractions were examined using isoelectric focusing in order to establish the purity of the separations (results shown in Table 2).
Mixtures of cytochrome c, BSA and α-chymotrypsin (10 mg each, 8,1×10^-4, 1.4×10^-4 and 4×10^-4 m.mole respectively) were treated with 18-crown-6 (50 mg, 0.19 m.mole) in methanol (2 ml) and the resulting red solution was filtered and then dialysed against water then buffer (Tris, pH 7.5, 0.01 M) to remove crown ether and methanol.

[2] = Dissolution of peptides/proteins in organic solvents using crown ethers and cryptands; conditions: in words
Experimental: ^(a) Protein concentration was in the range 0.05-0.8 mM depending on
protein (i.e. cytochrome c, concentration was 0.8 mM, whereas, myoglobin
concentrtion was 0.1 mM). In a typical experiment, small portions of CE
(ca 2.0 mg, 7.6 × 10^-3 mmoles) were added to a suspension of
protein/peptide (5 mg) in methanol (2 ml) at 4-25° C. with stirrin
until the suspension dissolved.

[3] = Protein crystallisation from methanol/18-crown-6/(NH4)2SO4; conditions: crystalline composite from methanol/18-crown-6/(NH4)2SO4
Experimental: The solubilised protein solutions were stored at 4° C. within an outer tube containing ethyl acetate as precipitating co-solvent.

[4] = mixture cytochrome c + BSA + α-chymotrypsin

| Substance | Iso-electric focusing results, pHI [1, 4] | Solubility in methanol with crown ether [2] | Circular dichroism / UV/visible spectroscopy of crystalline material (protein integrity) [3] | Iso-electric focusing results, pHI ([1]; mixture cytochrome c + α-chymotrypsin) |
| --- | --- | --- | --- | --- |
| Bovine serum albumin (BSA): bovine serum albumin, 513 amino acid residues as printed | 5.5-6.0 | – | – | – |
| Cytochrome c: Cytochrome c from horse heart (Type III, from Sigma Chemical Co.), 104 residues | 9.35 | readily dissolves; also recorded: dissolves in methanol at a lower crown ether concentration than BSA | intact protein present | 9.35 |
